The source of these data is publication PMC9785946, “Bioorthogonal Chemistry Approach for the Theranostics of GRPR-Expressing Cancers” (Pharmaceutics, 2022).

The procedure of series [1]: The octanol–water partition coefficients (Po/w) of the radioconjugates (20 µL, typically 1 to 5 MBq) were determined by the “shake-flask” method, as previously described.
A further series can be described thus: in vitro. The conditions noted are these: human, human serum.
In the next series the test system is GRPR. More on the design: method as in PMID 22080443, PMID 9437737. The conditions noted are these: literature value for reference peptide; ref [32],[39]; cited from earlier work.

Procedure for in vitro: The radiochemical stability of the radioconjugates was evaluated in vitro by the incubation of the four radioconjugates at 37 °C in PBS, in cell culture media (CCM) and human serum (HS) for 24 h, followed by HPLC analysis.

As usually defined, the logP is a log measure of how a compound divides between an organic and an aqueous phase. One may read the share remaining as what is left of the initial amount, in per cent. Low values mean a greater loss, high ones greater stability. In series [1], `CC(C)C[C@H](NC(=O)C[C@H](O)[C@H](CC(C)C)NC(=O)[C@H](Cc1c[nH]cn1)NC(=O)CNC(=O)[C@@H](NC(=O)[C@H](C)NC(=O)[C@H](Cc1c[nH]c2ccccc12)NC(=O)[C@H](CCC(N)=O)NC(=O)[C@@H](Cc1ccccc1)NC(=O)CCOCCOCCOCCOCCNC(=O)OC1CCCc2c(cnnc2-c2ccc(CNC(=O)CCC(C(=O)O)N3CCN(CC(=O)O)CCN(CC(=O)O)CCN(CC(=O)O)CC3)cc2)CC1)C(C)C)C(N)=O` (stereo partly drawn) [[^111In]In-DOTAGA-Tz-TCO-PEG4-AR, metal not drawn] yielded a logP of -1.18 ± 0.05. The amount remaining at 24 h in the series “in vitro” is about 70%. By IC50 is commonly meant the point on the concentration scale where inhibition reaches its midpoint. For the compound “D-Phe-Gln-Trp-Ala-Val-Gly-His-Sta-Leu-NH2 [AR]”, in the series with GRPR, the half-maximal inhibitory concentration (IC50) was 2.9 ± 0.6 nM.
